Results: patent EP0607332B1

Target: CD2 (human) (UniProt P06729)
Experiment: cell-based or functional assay

UniProt P06729, sequence (P06729 25-351 limits assumed, form in doubt): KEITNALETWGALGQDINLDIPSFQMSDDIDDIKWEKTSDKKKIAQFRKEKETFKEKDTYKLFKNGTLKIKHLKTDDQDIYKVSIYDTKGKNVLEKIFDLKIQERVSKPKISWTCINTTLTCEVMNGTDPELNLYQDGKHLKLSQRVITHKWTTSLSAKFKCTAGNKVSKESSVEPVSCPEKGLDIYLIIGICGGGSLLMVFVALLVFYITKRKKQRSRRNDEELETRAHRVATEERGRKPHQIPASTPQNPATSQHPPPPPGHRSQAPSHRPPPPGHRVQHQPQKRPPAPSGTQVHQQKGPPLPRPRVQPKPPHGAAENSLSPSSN

inhibition of allogeneic T cell activation by normal skin epidermal cells, 50 ug per ml antibody: 40%
inhibition of autologous T cell proliferation ([3H]TdR incorporation) in response to lesional psoriatic epidermis, 50 ug/ml antibody, against isotype-matched control: 60%
Substance: anti-CD2 monoclonal antibody TS2/18
